Measured values: PMC5560242
Where two headings read alike, the source gives them in different places.

Columns and labels:
MBNL1-zf12 [1] = molecular target: T1, MBNL1-zf12 (Homo sapiens, UniProt Q9NR56 1-92); test: NMR HSQC titration
T1 sequence: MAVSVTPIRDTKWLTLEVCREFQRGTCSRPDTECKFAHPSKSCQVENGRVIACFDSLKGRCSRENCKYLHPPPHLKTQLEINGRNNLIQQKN

MBNL1-zf12 [2] = molecular target: T1, MBNL1-zf12; test: BLI
MBNL1-zf12 [3] = molecular target: T1, MBNL1-zf12; test: BLI; remark: listed apart in the source

B1: hcTnT13 (ssRNA)
RNA: CUCGCUUUUCCCC
MBNL1-zf12 [1]
  binding result: binds

B2: hcTnT15m (U103G) (ssRNA)
RNA: GUCUCGCUGUUCCCC
MBNL1-zf12 [2]
  Kd: 500 nM

B3: hcTnT15 (ssRNA)
RNA: GUCUCGCUUUUCCCC
MBNL1-zf12 [3]
  Kd: 130 nM
